Measured values taken from publication PMC10397247.
Each block holds one binder with its values, some of them ahead of it.

Columns and labels:
[1] = molecular target: T1, 4H3409-AA; assay: two-hybrid library CCmax;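 further: natural log of median RNA to DNA barcode read ratio; higher means stronger binding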
T1 chain: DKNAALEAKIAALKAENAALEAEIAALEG

[2] = molecular target: T2, 4H3625-AA; assay: two-hybrid library CCmax; conditions: mean of both orientations;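 further: natural log of median RNA to DNA barcode read ratio; higher means stronger binding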
T2 chain: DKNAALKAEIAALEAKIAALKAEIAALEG

[3] = molecular target: T3, 4H390-AA; assay: two-hybrid library CCmax; conditions: mean of both orientations;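 further: natural log of median RNA to DNA barcode read ratio; higher means stronger binding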
T3 chain: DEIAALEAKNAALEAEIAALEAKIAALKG

[4] = molecular target: T4, 4H3940-AA; assay: two-hybrid library CCmax; conditions: mean of both orientations;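 further: natural log of median RNA to DNA barcode read ratio; higher means stronger binding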
T4 chain: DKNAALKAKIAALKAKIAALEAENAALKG

[5] = molecular target: T5, 4H510-AA; assay: two-hybrid library CCmax; conditions: mean of both orientations
T5 chain: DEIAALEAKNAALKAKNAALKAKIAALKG

[6] = molecular target: T6, 4H775-AA; assay: two-hybrid library CCmax; conditions: mean of both orientations
T6 chain: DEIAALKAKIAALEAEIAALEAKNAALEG

[7] = molecular target: T7, 4H816-AA; assay: two-hybrid library CCmax; conditions: mean of both orientations
T7 chain: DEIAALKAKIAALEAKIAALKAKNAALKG

[8] = molecular target: T8, 4H87-AA; assay: two-hybrid library CCmax; conditions: mean of both orientations
T8 chain: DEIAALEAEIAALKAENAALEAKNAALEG

[9] = molecular target: T9, 4H591-bH; assay: two-hybrid library CCNG1
T9 chain: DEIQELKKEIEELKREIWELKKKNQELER

[10] = molecular target: T10, 4H626-bH; assay: two-hybrid library CCNG1
T10 chain: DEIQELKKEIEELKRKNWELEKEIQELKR

[11] = molecular target: T11, 4H906-bH; assay: two-hybrid library CCNG1
T11 chain: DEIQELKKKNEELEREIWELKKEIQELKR

[12] = molecular target: T12, 4H688-AA; assay: two-hybrid library CCmax
T12 chain: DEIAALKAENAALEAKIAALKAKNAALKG

[13] = molecular target: T13, 4H963-AA; assay: two-hybrid library CCmax; conditions: mean of both orientations
T13 chain: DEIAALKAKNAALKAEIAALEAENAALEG

[14] = molecular target: T14, 4H3297-bN; assay: two-hybrid library CCNG1
T14 chain: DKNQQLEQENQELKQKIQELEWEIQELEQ

[15] = molecular target: T15, 4H3364-bN; assay: two-hybrid library CCNG1
T15 chain: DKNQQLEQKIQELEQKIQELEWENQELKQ

[16] = molecular target: T16, 4H3381-bN; assay: two-hybrid library CCNG1
T16 chain: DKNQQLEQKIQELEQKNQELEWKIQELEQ

[17] = molecular target: T17, 4H349-bN; assay: two-hybrid library CCNG1
T17 chain: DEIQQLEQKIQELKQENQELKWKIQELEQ

[18] = molecular target: T18, 4H56-bN; assay: two-hybrid library CCNG1
T18 chain: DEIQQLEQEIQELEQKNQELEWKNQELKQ

[19] = molecular target: T19, 4H730-bN; assay: two-hybrid library CCNG1
T19 chain: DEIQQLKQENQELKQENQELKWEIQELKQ

[20] = molecular target: T20, 4H796-bN; assay: two-hybrid library CCNG1
T20 chain: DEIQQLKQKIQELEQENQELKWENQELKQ

[21] = molecular target: T21, 4H932-bN; assay: two-hybrid library CCNG1
T21 chain: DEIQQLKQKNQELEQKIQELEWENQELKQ

[22] = molecular target: T22, 4H949-bN; assay: two-hybrid library CCNG1
T22 chain: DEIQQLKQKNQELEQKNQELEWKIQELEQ

interaction score [1]: -1.02 | interaction score [2]: -0.625 | interaction score [3]: -1.28 | interaction score [4]: -1.12 | interaction score [5]: 0.697 | interaction score [6]: -1.25 | interaction score [7]: -1.37 | interaction score [8]: -1.93
Binder: DKNAALEAKIAALKAENAALEAEIAALEG [4H3409-AA]

interaction score [9]: 1.58 | interaction score [10]: -0.53 | interaction score [11]: -0.784
Binder: DEIQELKKEIEELKREIWELKKKNQELER [4H591-bH]

interaction score [12]: -1.23 | interaction score [13]: 1.46
Binder: DEIAALKAENAALEAKIAALKAKNAALKG [4H688-AA]

interaction score [14]: -0.0469 | interaction score [15]: -0.913 | interaction score [16]: -1.01 | interaction score [17]: -2.11 | interaction score [18]: -0.798 | interaction score [19]: -0.799 | interaction score [20]: -0.556 | interaction score [21]: -1.21 | interaction score [22]: -1.29
Binder: DKNQQLEQENQELKQKIQELEWEIQELEQ [4H3297-bN]
